Source: patent US20260184815A1 (published 2026)

B1: M9-C10 (Fab, V domains shown)
VH: EVQLLESGGGLVQPGGSLRLSCAASGFTFSLYPMQWVRQAPGKGLEWVSSIGSSGGMTFYADSVKGRFTISRDNSKNTLYLQMNSLRAEDTAVYYCTREVGAAGFAFDIWGQGTMVTVSS
VL: DIQMTQSPSSLSASVGDRVTITCRASQGISSYLNWYQQKPGNAPNLLIYGASSLQSGVPSRFSGSGSGTDFTLTISSLQPEDFATYYCQESYSTLFTFGPGTTVEIK
notes: HC as printed runs into CH1
B2: M9-D08 (Fab, V domains shown)
VH: EVQLLESGGGLVQPGGSLRLSCAASGFTFSWYKMMWVRQAPGKGLEWVSSIYPSGGWTNYADSVKGRFTISRDNSKNTLYLQMNSLRAEDTAVYYCTRGSPWGDDAFDIWGQGTMVTVSS
VL: DIQMTQSPSSLSASVGDRVTLTCRASRTISFYLNWYQQKAGKAPELLIYGGSSLHSGVPSRFSGSGSGTDFSLTISNLQPEDIAVYYCQQSFSSPWTFGQGTKVEIK
notes: HC as printed runs into CH1
B3: M9-E04 (Fab, V domains shown)
VH: EVQLLESGGGLVQPGGSLRLSCAASGFTFSEYDMMWVRQAPGKGLEWVSSIGSSGGMTYYADSVKGRFTISRDNSKNTLYLQMNSLRAEDTAVYYCARDQVAAAAIDYWGQGTLVTVSS
VL: DIQMIQSPSSLSASVGDRVTITCRASQSISGYLNWYQQRSGKAPKLLIFAASNLQTGVPSRFSGSGSGTDFTLTINNLQPEDFATYYCQQSHTPPKTFGPGTKVDIK
notes: HC as printed runs into CH1
B4: M9-F08 (Fab, V domains shown)
VH: EVQLLESGGGLVQPGGSLRLSCAASGFTFSPYAMTWVRQAPGKGLEWVSVIYPSGGFTDYADSVKGRFTISRDNSKNTLYLQMNSLRAEDTAMYYCARASGSYLDAFDIWGQGTMVTVSS
VL: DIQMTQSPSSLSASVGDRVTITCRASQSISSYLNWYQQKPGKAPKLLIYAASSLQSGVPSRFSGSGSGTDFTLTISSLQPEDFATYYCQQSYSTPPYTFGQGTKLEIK
notes: HC as printed runs into CH1; LC amber q (QMTqSPS) written as Q
B5: M9-F09 (Fab, V domains shown)
VH: EVQLLESGGGLVQPGGSLRLSCAASGFTFSSYPMGWVRQAPGKGLEWVSRISSSGGMTIYADSVKGRFTISRDNSKNTLYLQMNSLRAEDTAVYYCARDDWNVGMDVWGQGTTVTVSS
VL: DIQMTQSPSSLSASVGDRVTITCRASQSISSYLNWYQQKPGKAPKLLIYAASSLQSGVPSKFSGSGSGTDYTLTISSLQPEDFATYYCQQTYTTPWTFGQGTKVEIK
notes: HC as printed runs into CH1; (as printed for M28-E01)
B6: M9-F10 (Fab, V domains shown)
VH: EVQLLESGGGLVQPGGSLRLSCAASGFTFSDYDMEWVRQAPGKGLEWVSSISPSGGSTIYADSVKGRFTISRDNSKNTLYLQMNSLRAEDTAVYYCARQGLLTAFDIWGQGTMVTVSS
VL: DIQMTQSPSSLSASVGDRVTITCRASQSINTYLNWYQQKPGKAPKVLIHAASTLESGVPSRFSGSGSGTDFTLTISSLQPEDFATYYCQQSYSTPYTFGQGTKLEVR
notes: HC as printed runs into CH1
B7: M9-G08 (Fab, V domains shown)
VH: EVQLLESGGGLVQPGGSLRLSCAASGFTFSYYTMLWVRQAPGKGLEWVSSIYPSGGFTMYADSVKGRFTISRDNSKNTLYLQMNSLRAEDTAVYYCARVDTAMAMIDYWGQGTLVTVSS
VL: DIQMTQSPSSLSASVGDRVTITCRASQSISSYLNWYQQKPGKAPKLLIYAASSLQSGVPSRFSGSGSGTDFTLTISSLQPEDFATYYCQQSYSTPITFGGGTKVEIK
notes: HC as printed runs into CH1
B8: M9-H02 (Fab, V domains shown)
VH: EVQLLESGGGLVQPGGSLRLSCAASGFTFSAYMMIWVRQAPGKGLEWVSVIYPSGGVTMYADSVKGRFTISRDNSKNTLYLQMNSLRAEDTAVYYCARGTVGASDAFDIWGQGTMVTVSS
VL: DIQMTQSPSSLSASVGDRVIITCRASRSIATYLNWYQQKPGKAPNLLIFGASTLQSGVPSRFSGSGSGTDFTLTISDLQPEDFATYYCQQSFSDPYTFGQGTNLEMK
notes: HC as printed runs into CH1
B9: M9-H03 (Fab, V domains shown)
VH: EVQLLESGGGLVQPGGSLRLSCAASGFTFSWYSMGWVRQAPGKGLEWVSYIVPSGGYTMYADSVKGRFTISRDNSKNTLYLQMNSLRAEDTAVYYCARDPGVSYYYYGMDVWGQGTTVTVSS
VL: QYELTQAPSVSVAPGQTASITCSGDKLGNRYTSWYQQKPGQSPVLVIFQDNKRPSGIPERFSGSNSGNTATLTISGTQAMDEADYYCQALDSNTYVFGTGTKVTVL
notes: HC as printed runs into CH1
B10: M9-H04 (Fab, V domains shown)
VH: EVQLLESGGGLVQPGGSLRLSCAASGFTFSAYTMWWVRQAPGKGLEWVSSIWPSGGSTFYADSVKGRFTISRDNSKNTLYLQMNSLRAEDTAVYYCARTYDSSAGEVDYWGQGTLVTVSS
VL: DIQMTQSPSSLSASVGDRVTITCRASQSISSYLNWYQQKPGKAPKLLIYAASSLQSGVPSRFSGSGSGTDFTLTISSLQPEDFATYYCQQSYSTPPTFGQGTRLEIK
notes: HC as printed runs into CH1
B11: M10-A03 (Fab, V domains shown)
VH: EVQLLESGGGLVQPGGSLRLSCAASGFTFSPYPMQWVRQAPGKGLEWVSSISSSGGMTEYADSVKGRFTISRDNSKNTLYLQMNSLRAEDTAVYYCARDDYGGKGGAFDIWGQGTMVTVSS
VL: DIQMTQSPSSLSASVGDRVTITCRASQRISFYLNWFQQKPGKAPNLLIYGASSLQSGVPSRFSGSGSGTDFTLTISSLQPKDFGTYYCQQTFSTPNTFGQGTKLEIK
notes: HC as printed runs into CH1
B12: M10-A12 (Fab, V domains shown)
VH: EVQLLESGGGLVQPGGSLRLSCAASGFTFSLYLMHWVRQAPGKGLEWVSSIYSSGGFTTYADSVKGRFTISRDNSKNTLYLQMNSLRAEDTAVYYCARDTDYGMDVWGQGTTVTVSS
VL: DIQMTQSPLSLSAFVGDRVTITCRASRDISVYLNWYQLKSGKAPKLLIYGASSLQSGVPSRFSGSGSGTDFTLTITSLQPEDFATYYCQQSYSIPFTFGGGTKVETK
notes: HC as printed runs into CH1
B13: M10-B09 (Fab, V domains shown)
VH: EVQLLESGGGLVQPGGSLRLSCAASGFTFSWYEMSWVRQAPGKGLEWVSRIWPSGGVTMYADSVKGRFTISRDNSKNTLYLQMNSLRAEDTAVYYCTRTSITTVGMDVWGQGTTVTVSS
VL: DIQMTQSPSSLSASVGDGVTITCRASQSISTYLNWYQQRPGKAPKLLIYGASSLQSGVPSRFSGSGSGTDFTLTISSLQREDFATYYCQQSFSTPWTFGQGTRVEIK
notes: HC as printed runs into CH1; HC amber q (LqMNS) written as Q
B14: M10-C11 (Fab, V domains shown)
VH: EVQLLESGGGLVQPGGSLRLSCAASGFTFSMYPMMWVRQAPGKGLEWVSYISPSGGMTDYADSVKGRFTISRDNSKNTLYLQMNSLRAEDMAVYYCARVAGSSDAFDIWGQGTMVTVSS
VL: DIQMTQSPSSLSASVGDRVTITCRASQSISIYLNWYQQKPEKAPKLLIFAASTLQSGVPSRFSGSGSGTDFTLTISNLQPEDFATYYCQQSHSIPPTFGLGTKVEVK
notes: HC as printed runs into CH1
B15: M10-D11 (Fab, V domains shown)
VH: EVQLLESGGGLVQPGGSLRLSCAASGFTFSAYPMNWVRQAPGKGLEWVSRISSSGGNTSYADSVKGRFTISRDNSKNTLYLQMNSLRAEDTAVYYCALGYLGYWGQGTLVTVSS
VL: not shown
notes: HC as printed runs into CH1
B16: M10-E06 (Fab, V domains shown)
VH: EVQLLESGGGLVQPGGSLRLSCAASGFTFSLYRMFWVRQAPGKGLEWVSSIWSSGGPTMYADSVKGRFTISRDNSKNTLYLQMNSLRAEDTAVYYCAREYPSTYYFDYWGQGTLVTVSS
VL: DIQMTQSPSSLSASVGDRVTITCRASQSISTYLNWYQQKPGKAPKLLIYGASSLQSGVPSRFSGSGSGTDFTLTISSLQPEDFTIYYCQQSYSDPYTFGQGTKLDIK
notes: HC as printed runs into CH1
B17: M10-F09 (Fab, V domains shown)
VH: EVQLLESGGGLVQPGGSLRLSCAASGFTFSNYDMMWVRQAPGKGLEWVSYISPSGGFTRYADSVKGRFTISRDNSKNTLYLQMNSLRAEDTATYYCAKDIYYYNWGPSHYFDSWGQGTLVTVSS
VL: DIQMTQSPSSLSASVGDRVTITCRASQTIDDDLIWYQQKPGRAPKLLIYAASSLQSGVPSRFSGSGSGTDFTLTITSLQPEDFATYYCQQSYNIPRTFGQGTKLESK
notes: HC as printed runs into CH1

Each binder was assayed against T1, human plasma kallikrein (human, UniProt P03952 20-390; P03952 391-638) (assay: ELISA, biotinylated pKal signal over streptavidin background).
T1 construct: also called pKal; Human pKal
Excerpt: Abbreviations used: “T/B” is the ELISA signal obtained using of the “target” (biotinylated plasma kallikrein) divided by the ELISA signal of the “background” (streptavidin); both of which were coated on microtiter plates, “nd” is not determined. The symbol “q” refers to the amber suppressible stop codon (TAG), which is translated as glutamine (Q) in strains of E. coli such as the TG1 cells that were used to express the Fab fragments.

T1 sequence (P03952 20-390, chain 1 of 2): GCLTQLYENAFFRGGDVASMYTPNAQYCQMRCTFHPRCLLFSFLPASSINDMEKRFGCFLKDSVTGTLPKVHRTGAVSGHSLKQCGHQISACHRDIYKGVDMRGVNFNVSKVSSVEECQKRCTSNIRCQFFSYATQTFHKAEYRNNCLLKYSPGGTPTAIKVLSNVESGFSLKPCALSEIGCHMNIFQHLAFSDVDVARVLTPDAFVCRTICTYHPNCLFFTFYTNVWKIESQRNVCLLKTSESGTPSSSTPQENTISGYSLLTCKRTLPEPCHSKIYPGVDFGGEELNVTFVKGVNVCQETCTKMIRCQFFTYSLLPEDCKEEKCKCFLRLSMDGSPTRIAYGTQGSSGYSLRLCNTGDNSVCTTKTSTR
T1 sequence (P03952 391-638, chain 2 of 2): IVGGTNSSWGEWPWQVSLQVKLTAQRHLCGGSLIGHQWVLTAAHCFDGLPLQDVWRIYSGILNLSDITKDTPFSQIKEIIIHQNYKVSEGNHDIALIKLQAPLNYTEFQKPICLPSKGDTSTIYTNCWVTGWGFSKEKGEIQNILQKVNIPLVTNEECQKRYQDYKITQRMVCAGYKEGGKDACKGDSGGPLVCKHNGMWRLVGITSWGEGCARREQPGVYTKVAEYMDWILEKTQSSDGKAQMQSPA

Going from B1 to B2, the “ELISA (T/B)” value rises from 7.8 T/B to 35.9 T/B.

Going from B3 to B4, the “ELISA (T/B)” value falls from 18.8 T/B to 10.9 T/B.

First: B5
Second: B6
The “ELISA (T/B)” value of the first is lower: 7 T/B for the first, 8.4 T/B for the second.

Compared with B7, B8 is lower in “ELISA (T/B)” value: 4.8 T/B for the first, 3.5 T/B for the second.

Going from B9 to B10, the “ELISA (T/B)” value rises from 4.4 T/B to 16.1 T/B.

Going from B11 to B12, the “ELISA (T/B)” value falls from 33.7 T/B to 20.8 T/B.

Going from B13 to B14, the “ELISA (T/B)” value falls from 14.1 T/B to 5.3 T/B.

First: B15
Second: B16
The “ELISA (T/B)” value of the first is lower: 6.4 T/B for the first, 32.8 T/B for the second.

With B17 the “ELISA (T/B)” value was 4.8 T/B.
